Data published in paper PMC3898896 (Journal of Molecular Biology, 2013).

Target: the molecule itself
Assay: crystal structure

B1: N-terminal dimerization domain of S. pombe Cdc23 (Cdc23^N19-302,Y302A) (domain or fragment, UniProt O94556 19-302, looked up)
chain: QLREIRNCLLKCISECSERGLVYAVRWAAEMLNGMNPIEMEHIPFSSTPTGEFDLDPDMANEKLLEVEEKNIYLLAKSYFDCKEFERAAYTLQNCKSSKSIFLRLYSKYLAGEKKSEEENETLLNTNLTLSSTNREFYYISEVLESLHYQGNKDPYLLYLSGVVYRKRKQDSKAIDFLKSCVLKAPFFWSAWLELSLSIDSLETLTTVVSQLPSTHIMTKIFYVYASHELHQVNSSAYEKLAEAEIIFPNSRYLKTQRALLTYDSRDFDEAESLFENILTNDPA
B1 was tested, and the “stoichiometry N” value was 2.
